Assay: melting temperature; melt of duplexes
Conditions: sodium 0.0675 M; strand 1 µM

Row | Substance | Tm [°C]
1 | CGACGTGCAAAATGTGCTG+CAGCACATTGGGCACGTCG ((((((((..(((((((((+)))))))))..)))))))) | 54
2 | CGACGTGCTCCATGTGCTG+CAGCACATGTCGCACGTCG ((((((((..(((((((((+)))))))))..)))))))) | 52.1
3 | CGACGTGCAAGATGTGCTG+CAGCACATGAAGCACGTCG ((((((((...((((((((+))))))))...)))))))) | 52.2
4 | CGACGTGCCAGATGTGCTG+CAGCACATGCGGCACGTCG (((((((((..((((((((+))))))))..))))))))) | 54.6
5 | CGACGTGCTGGATGTGCTG+CAGCACATTACGCACGTCG ((((((((...((((((((+))))))))...)))))))) | 51.1
6 | CGACGTGCATTATGTGCTG+CAGCACATGTGGCACGTCG ((((((((...((((((((+))))))))...)))))))) | 49.2
7 | CGACGTGCTCCATGTGCTG+CAGCACATTCGGCACGTCG ((((((((...((((((((+))))))))...)))))))) | 47.6
8 | CGACGTGCAGAATGTGCTG+CAGCACATTTGGCACGTCG ((((((((..(((((((((+)))))))))..)))))))) | 54.3
9 | CGACGTGCTGCATGTGCTG+CAGCACATGGAGCACGTCG (((((((((.(((((((((+))))))))).))))))))) | 61.2
10 | CGACGTGCCTCATGTGCTG+CAGCACATTTGGCACGTCG (((((((((..((((((((+))))))))..))))))))) | 53.6
11 | CGACGTGCGCAATGTGCTG+CAGCACATCTGGCACGTCG ((((((((...((((((((+))))))))...)))))))) | 49.8
12 | CGACGTGCCACATGTGCTG+CAGCACATTCGGCACGTCG (((((((((..((((((((+))))))))..))))))))) | 53.4
13 | CGACGTGCAACATGTGCTG+CAGCACATGTGGCACGTCG ((((((((.((((((((((+)))))))))).)))))))) | 59.3
14 | CGACGTGCAGGATGTGCTG+CAGCACATAAAGCACGTCG ((((((((...((((((((+))))))))...)))))))) | 50.6
15 | CGACGTGCCGGATGTGCTG+CAGCACATGAAGCACGTCG ((((((((...((((((((+))))))))...)))))))) | 49.9
16 | CGACGTGCCACATGTGCTG+CAGCACATAACGCACGTCG ((((((((...((((((((+))))))))...)))))))) | 47.1
17 | CGACGTGCAGTATGTGCTG+CAGCACATAAGGCACGTCG ((((((((..(((((((((+)))))))))..)))))))) | 52.1
18 | CGACGTGCAGTATGTGCTG+CAGCACATACCGCACGTCG ((((((((.((((((((((+)))))))))).)))))))) | 55.7
19 | CGACGTGCCGTATGTGCTG+CAGCACATCAAGCACGTCG ((((((((...((((((((+))))))))...)))))))) | 49.3
20 | CGACGTGCGGGATGTGCTG+CAGCACATCTCGCACGTCG (((((((((.(((((((((+))))))))).))))))))) | 62.3
21 | CGACGTGCCTAATGTGCTG+CAGCACATGCTGCACGTCG ((((((((...((((((((+))))))))...)))))))) | 46.9
22 | CGACGTGCTCGATGTGCTG+CAGCACATACTGCACGTCG ((((((((...((((((((+))))))))...)))))))) | 49
23 | CGACGTGCGCAATGTGCTG+CAGCACATCGCGCACGTCG ((((((((((.((((((((+)))))))).)))))))))) | 60.3
24 | CGACGTGCGCAATGTGCTG+CAGCACATGTAGCACGTCG ((((((((...((((((((+))))))))...)))))))) | 57.5

Row | Substance | Tm [°C]
25 | CGACGTGCGAAATGTGCTG+CAGCACATACAGCACGTCG ((((((((...((((((((+))))))))...)))))))) | 53.3
26 | CGACGTGCTAGATGTGCTG+CAGCACATACGGCACGTCG ((((((((...((((((((+))))))))...)))))))) | 49.9
27 | CGACGTGCAGAATGTGCTG+CAGCACATCTCGCACGTCG ((((((((...((((((((+))))))))...)))))))) | 51.6
28 | CGACGTGCCAAATGTGCTG+CAGCACATTCGGCACGTCG (((((((((.(((((((((+))))))))).))))))))) | 57.5
29 | CGACGTGCTCGATGTGCTG+CAGCACATTATGCACGTCG ((((((((...((((((((+))))))))...)))))))) | 49.6
30 | CGACGTGCTACATGTGCTG+CAGCACATGTCGCACGTCG ((((((((.((((((((((+)))))))))).)))))))) | 57.2
31 | CGACGTGCCATATGTGCTG+CAGCACATGGAGCACGTCG ((((((((...((((((((+))))))))...)))))))) | 51.5
32 | CGACGTGCAACATGTGCTG+CAGCACATCCGGCACGTCG ((((((((...((((((((+))))))))...)))))))) | 47.7
33 | CGACGTGCATTATGTGCTG+CAGCACATTCGGCACGTCG ((((((((...((((((((+))))))))...)))))))) | 48.5
34 | CGACGTGCTTGATGTGCTG+CAGCACATTCCGCACGTCG ((((((((...((((((((+))))))))...)))))))) | 48.5
35 | CGACGTGCAGGATGTGCTG+CAGCACATATGGCACGTCG ((((((((...((((((((+))))))))...)))))))) | 51.3
36 | CGACGTGCATCATGTGCTG+CAGCACATTGAGCACGTCG ((((((((...((((((((+))))))))...)))))))) | 50.2
37 | CGACGTGCGAAATGTGCTG+CAGCACATTGAGCACGTCG ((((((((..(((((((((+)))))))))..)))))))) | 61.3
38 | CGACGTGCAGTATGTGCTG+CAGCACATTGCGCACGTCG ((((((((...((((((((+))))))))...)))))))) | 49.3
39 | CGACGTGCGGGATGTGCTG+CAGCACATCAGGCACGTCG ((((((((..(((((((((+)))))))))..)))))))) | 56.2
40 | CGACGTGCTTTATGTGCTG+CAGCACATCATGCACGTCG ((((((((.(.((((((((+)))))))).).)))))))) | 49.2
41 | CGACGTGCGGAATGTGCTG+CAGCACATCTCGCACGTCG (((((((((..((((((((+))))))))..))))))))) | 55.3
42 | CGACGTGCTTTATGTGCTG+CAGCACATGATGCACGTCG ((((((((.(.((((((((+)))))))).).)))))))) | 52.1
43 | CGACGTGCTCCATGTGCTG+CAGCACATGGAGCACGTCG (((((((((((((((((((+))))))))))))))))))) | 66.1
44 | CGACGTGCGCGATGTGCTG+CAGCACATTTTGCACGTCG ((((((((...((((((((+))))))))...)))))))) | 48.9
45 | CGACGTGCCCTATGTGCTG+CAGCACATGGCGCACGTCG ((((((((.(.((((((((+)))))))).).)))))))) | 52.9
46 | CGACGTGCTAGATGTGCTG+CAGCACATACAGCACGTCG (((((((((..((((((((+))))))))..))))))))) | 53.2
47 | CGACGTGCGACATGTGCTG+CAGCACATACGGCACGTCG ((((((((...((((((((+))))))))...)))))))) | 48.8
48 | CGACGTGCTCCATGTGCTG+CAGCACATGAAGCACGTCG (((((((((.(((((((((+))))))))).))))))))) | 57.4

Row | Substance | Tm [°C]
49 | CGACGTGCCTCATGTGCTG+CAGCACATGCGGCACGTCG (((((((((.(((((((((+))))))))).))))))))) | 58.3
50 | CGACGTGCGAAATGTGCTG+CAGCACATGGTGCACGTCG ((((((((...((((((((+))))))))...)))))))) | 50.6
51 | CGACGTGCACAATGTGCTG+CAGCACATTTTGCACGTCG (((((((((.(((((((((+))))))))).))))))))) | 54
52 | CGACGTGCGCAATGTGCTG+CAGCACATGGAGCACGTCG ((((((((.(.((((((((+)))))))).).)))))))) | 60.2
53 | CGACGTGCCGAATGTGCTG+CAGCACATCAAGCACGTCG ((((((((...((((((((+))))))))...)))))))) | 49.6
54 | CGACGTGCCCAATGTGCTG+CAGCACATCTTGCACGTCG ((((((((...((((((((+))))))))...)))))))) | 48.1
55 | CGACGTGCATTATGTGCTG+CAGCACATCTTGCACGTCG (((((((((..((((((((+))))))))..))))))))) | 51.1
56 | CGACGTGCAGAATGTGCTG+CAGCACATCATGCACGTCG (((((((((..((((((((+))))))))..))))))))) | 53
57 | CGACGTGCATGATGTGCTG+CAGCACATCTCGCACGTCG ((((((((..(((((((((+)))))))))..)))))))) | 53.9
58 | CGACGTGCCCGATGTGCTG+CAGCACATACAGCACGTCG ((((((((...((((((((+))))))))...)))))))) | 49.1
59 | CGACGTGCGGCATGTGCTG+CAGCACATGGGGCACGTCG ((((((((..(((((((((+)))))))))..)))))))) | 57.6
60 | CGACGTGCAGAATGTGCTG+CAGCACATTGGGCACGTCG ((((((((..(((((((((+)))))))))..)))))))) | 53.8
61 | CGACGTGCAGCATGTGCTG+CAGCACATACTGCACGTCG ((((((((((.((((((((+)))))))).)))))))))) | 55.7
62 | CGACGTGCAAAATGTGCTG+CAGCACATCTAGCACGTCG ((((((((.(.((((((((+)))))))).).)))))))) | 49.5
63 | CGACGTGCCGCATGTGCTG+CAGCACATGAGGCACGTCG (((((((((.(((((((((+))))))))).))))))))) | 62.6
64 | CGACGTGCTGTATGTGCTG+CAGCACATCCTGCACGTCG ((((((((.(.((((((((+)))))))).).)))))))) | 51.5
65 | CGACGTGCATAATGTGCTG+CAGCACATAAAGCACGTCG ((((((((.(.((((((((+)))))))).).)))))))) | 50.2
66 | CGACGTGCCTAATGTGCTG+CAGCACATTTAGCACGTCG ((((((((..(((((((((+)))))))))..)))))))) | 51.5
67 | CGACGTGCTTGATGTGCTG+CAGCACATCGAGCACGTCG (((((((((.(((((((((+))))))))).))))))))) | 60.6
68 | CGACGTGCTGAATGTGCTG+CAGCACATGGCGCACGTCG ((((((((...((((((((+))))))))...)))))))) | 52.3
69 | CGACGTGCGCTATGTGCTG+CAGCACATTGCGCACGTCG ((((((((((.((((((((+)))))))).)))))))))) | 61
70 | CGACGTGCCCGATGTGCTG+CAGCACATGCGGCACGTCG (((((((((..((((((((+))))))))..))))))))) | 54.6
71 | CGACGTGCGTAATGTGCTG+CAGCACATCACGCACGTCG ((((((((((.((((((((+)))))))).)))))))))) | 58
72 | CGACGTGCTCGATGTGCTG+CAGCACATGTGGCACGTCG ((((((((...((((((((+))))))))...)))))))) | 50.7
